# Where two headings read alike, the source gives them in different places.
# B1: COVID19_P19_C08 (scFv, V domains shown)
# VH: EVQLVESGGGLVQPGGSLRLSCAASGFTFSSYAMHWVRQAPGKGLEWVSAISASSAGAYYADSVKGRFTISRDNSKNTLYLQMNSLRAEDTAVYYCVTNMDNSRDYFPHYFHDMDVWGQGTLVTVSS
# VL: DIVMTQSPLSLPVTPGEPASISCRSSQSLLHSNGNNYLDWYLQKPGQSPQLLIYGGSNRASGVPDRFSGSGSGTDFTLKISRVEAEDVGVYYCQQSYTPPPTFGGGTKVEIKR
# B2: COVID19_P07_F01 (scFv, V domains shown)
# VH: EVQLVESGGGLVQPGGSLRLSCAASGFTFSSYAMHWVRQAPGKGLEWVSAVGDSGRSTYYADSVKGRFTISRDNSKNTLYLQMNSLRAEDTAVYYCVTNLDNSRDYFPHYFHDMDVWGQGTLVTVSS
# VL: not shown
# B3: COVID19_P19_C12 (scFv, V domains shown)
# VH: EVQLVESGGGLVQPGGSLRLSCAASGFTFRNYAMHWVRQAPGKGLEWVSAVSSSGGSPYYADSVKGRFTISRDNSKNTLYLQMNSLRAEDTAVYYCVTNMDNSRDYFPHYFHDMDVWGQGTLVTVSS
# VL: DIVMTQSPLSLPVTPGEPASISCRSSQSLVHSDGDNYLNWYLQKPGQSPQLLIYSGSYRASGVPDRFSGSGSGTDFTLKISRVEAEDVGVYYCMQGTHWPLTFGGGTKVEIKR
# B4: COVID19_P07_G06 (scFv, V domains shown)
# VH: EVQLVESGGGLVQPGGSLRLSCAASGFTFSSYAMHWVRQAPGKGLEWVSAIGAGGGTYYADSVKGRFTISRDNSKNTLYLQMNSLRAEDTAVYYCVTNLDNSRDYFPHYFHDMDVWGQGTLVTVSS
# VL: DIVMTQSPLSLPVTPGEPASISCRSSQSLLHSNGYNYLDWYLQKPGQSPQLLIYGASTRATGVPDRFSGSGSGTDFTLKISRVEAEDVGVYYCMQTLQTPRFGGGTKVEIKR
# B5: COVID19_P20_G06 (scFv, V domains shown)
# VH: EVQLVESGGGLVQPGGSLRLSCAASGFTFSNSDMNWVRQAPGKGLEWVSGISGGGAGTYYADSVKGRFTISRDNSKNTLYLQMNSLRAEDTAVYYCVTYRDNSRDYFPHYFHDMDVWGQGTLVTVSS
# VL: DIVMTQSPLSLPVTPGEPASISCRSSQSLVHSNGDTYLDWYLQKPGQSPQLLIYLGSIRAPGVPDRFSGSGSGTDFTLKISRVEAEDVGVYYCQQSYSTPWTFGGGTKVEIKR
# B6: COVID19_P19_B09 (scFv, V domains shown)
# VH: EVQLVESGGGLVQPGGSLRLSCAASGFTFSSHTIAWVRQAPGKGLEWLSHISSSGSTTYYADSVKGRFTISRDNSKNTLYLQMNSLRAEDTAVYYCVTQRDNSRDMSPHYFHDMDVWGQGTLVTVSS
# VL: DIVMTQSPLSLPVTPGEPASISCRSSQSLLDSNGFNYLDWYLQKPGQSPQLLIYLGSSRAPGVPDRFSGSGSGTDFTLKISRVEAEDVGVYYCQQSYNTPWTFGGGTKVEIKR
# B7: COVID19_P19_E01 (scFv, V domains shown)
# VH: EVQLVESGGGLVQPGGSLRLSCAASGFTFSSYAMHWVRQAPGKGLEWVAVVSRSGGSTFYADSVKGRFTISRDNSKNTLYLQMNSLRAEDTAVYYCVTQRDNSRDYFPHYFHDMDVWGQGTLVTVSS
# VL: DIVMTQSPLSLPVTPGEPASISCRSSQSLVHSNGDTYLDWYLQKPGQSPQLLIYLGSIRAPGVPDRFSGSGSGTDFTLKISRVEAEDVGVYYCQQSYSTPWTFGGGTKVEIKR
# B8: COVID19_P19_C03 (scFv, V domains shown)
# VH: EVQLVESGGGLVQPGGSLRLSCAASGFTFSNSDMNWVRQAPGKGLEWVSRINGDGSTTGYADSVKGRFTISRDNSKNTLYLQMNSLRAEDTAVYYCVTTGDNSRDYFPHYFHDMDVWGQGTLVTVSS
# VL: DIVMTQSPLSLPVTPGEPASISCRSSQSLLHSNGDTYLDWYLQKPGQSPQLLIYLGSIRAPGVPDRFSGSGSGTDFTLKISRVEAEDVGVYYCQQSYITPWTFGGGTKVEIKR
# B9: COVID19_P20_F02 (scFv, V domains shown)
# VH: EVQLVESGGGLVQPGGSLRLSCAASGFAFSNYGMHWIRQAPGKGLEWVSGIDGSGGTAHYADSVKGRFTISRDNSKNTLYLQMNSLRAEDTAVYYCVTNMDNSRDYFPHYFHDMDVWGQGTLVTVSS
# VL: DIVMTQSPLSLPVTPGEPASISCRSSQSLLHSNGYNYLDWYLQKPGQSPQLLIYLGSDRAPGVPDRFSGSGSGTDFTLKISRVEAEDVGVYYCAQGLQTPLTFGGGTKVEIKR
# B10: COVID19_P20_A11 (scFv, V domains shown)
# VH: EVQLVESGGGLVQPGGSLRLSCAASGFTFSSYAMHWVRQAPGKGLEWVSAISGSGDNTYYADSVKGRFTISRDNSKNTLYLQMNSLRAEDTAVYYCVTNMDNSRDYFPHYFHDMDVWGQGTLVTVSS
# VL: not shown
# B11: COVID19_P19_F02 (scFv, V domains shown)
# VH: EVQLVESGGGLVQPGGSLRLSCAASGFTFSSYGMHWVRQAPGKGLEWVSAYSGSGGYTYFADSVKGRFTISRDNSKNTLYLQMNSLRAEDTAVYYCVTNMDNSRDYFPHYFHDMDVWGQGTLVTVSS
# VL: DIVMTQSPLSLPVTPGEPASISCKSSQSLLHINGFNYLDWFLQKPGQSPQLLIYLGSNRAPGVPDRFSGSGSGTDFTLKISRVEAEDVGVYYCQQSLQNPRTFGGGTKVEIKR
# B12: COVID19_P08_G02 (scFv, V domains shown)
# VH: EVQLVESGGGLVQPGGSLRLSCAASGFTFSSYGMHWIRQAPGKGLEWVSAVSASGDRTHYADSVKGRFTISRDNSKNTLYLQMNSLRAEDTAVYYCVTNLDNSRDYFPHYFHDMDVWGQGTLVTVSS
# VL: DIVMTQSPLSLPVTPGEPASISCRSSQSLVHSDGYTYLNWYLQKPGQSPQLLIYVGSYRASGVPDRFSGSGSGTDFTLKISRVEAEDVGVYYCMQASQWPPTFGGGTKVEIKR
# Assays:
# Assay in all cases: SPR, scFv captured via anti-V5, RBD as analyte
# [1] = target: MERS Receptor Binding Domain (RBD) protein (MERS coronavirus, UniProt K9N5Q8 367-606)
# [2] = target: SARS-CoV-1 Receptor Binding Domain (RBD) protein (SARS-CoV-1, UniProt P59594 306-527)
# [3] = target: T1, SARS-CoV-2 Receptor Binding Domain (RBD) protein (SARS-CoV-2, UniProt P0DTC2 319-541)
# [4] = target: T1, SARS-CoV-2 Receptor Binding Domain …; remark: listed apart in the source
Binder,binding result [1],binding result [2],Kd [3],Kd [4],koff [4],kon [4]
B1,no binding (tested: up to 300 nM),no binding (tested: up to 300 nM),< 50 nM,27.6 nM,0.0047 s⁻¹,170000 M⁻¹ s⁻¹
B2,no binding (tested: up to 300 nM),no binding (tested: up to 300 nM),< 50 nM,0.8 nM,5.7e-05 s⁻¹,68000 M⁻¹ s⁻¹
B3,no binding (tested: up to 300 nM),no binding (tested: up to 300 nM),< 50 nM,,,
B4,no binding (tested: up to 300 nM),no binding (tested: up to 300 nM),< 50 nM,1.6 nM,5.7e-05 s⁻¹,36300 M⁻¹ s⁻¹
B5,no binding (tested: up to 300 nM),no binding (tested: up to 300 nM),< 50 nM,8.95 nM,0.000834 s⁻¹,93200 M⁻¹ s⁻¹
B6,no binding (tested: up to 300 nM),no binding (tested: up to 300 nM),< 50 nM,15.9 nM,0.00313 s⁻¹,197000 M⁻¹ s⁻¹
B7,no binding (tested: up to 300 nM),no binding (tested: up to 300 nM),< 50 nM,41.7 nM,0.00644 s⁻¹,155000 M⁻¹ s⁻¹
B8,no binding (tested: up to 300 nM),no binding (tested: up to 300 nM),< 50 nM,35.3 nM,0.0058 s⁻¹,164000 M⁻¹ s⁻¹
B9,no binding (tested: up to 300 nM),no binding (tested: up to 300 nM),< 50 nM,17.8 nM,0.00081 s⁻¹,45500 M⁻¹ s⁻¹
B10,no binding (tested: up to 300 nM),no binding (tested: up to 300 nM),< 50 nM,20.2 nM,0.000872 s⁻¹,43100 M⁻¹ s⁻¹
B11,no binding (tested: up to 300 nM),no binding (tested: up to 300 nM),< 50 nM,36.1 nM,0.00384 s⁻¹,106000 M⁻¹ s⁻¹
B12,no binding (tested: up to 300 nM),no binding (tested: up to 300 nM),< 50 nM,2.71 nM,0.0001 s⁻¹,38000 M⁻¹ s⁻¹

# Reference: patent US11053304 (CENTIVAX, dated 2021)
